Measured values published in US20090130105A1.

Assays:
[1] = target: human IGF-1R(1-903)-Fc (human) (UniProt P08069); test: ELISA, blocking of 320 nM IGF-1 His on biotinylated hIGF-1R-Fc
[2] = target: human IGF-1R(1-903)-Fc (human) (UniProt P08069); test: ELISA on hIGF-1R-Fc; competitor biotinylated M14-G11; +++++ = 90-100%
[3] = target: human IGF-1R(1-903)-Fc (human) (UniProt P08069); test: ELISA on hIGF-1R-Fc; competitor Zenon-labeled αIR3; +++++ = 90-100%

human IGF-1R(1-903)-Fc (human), sequence (P08069 31-933): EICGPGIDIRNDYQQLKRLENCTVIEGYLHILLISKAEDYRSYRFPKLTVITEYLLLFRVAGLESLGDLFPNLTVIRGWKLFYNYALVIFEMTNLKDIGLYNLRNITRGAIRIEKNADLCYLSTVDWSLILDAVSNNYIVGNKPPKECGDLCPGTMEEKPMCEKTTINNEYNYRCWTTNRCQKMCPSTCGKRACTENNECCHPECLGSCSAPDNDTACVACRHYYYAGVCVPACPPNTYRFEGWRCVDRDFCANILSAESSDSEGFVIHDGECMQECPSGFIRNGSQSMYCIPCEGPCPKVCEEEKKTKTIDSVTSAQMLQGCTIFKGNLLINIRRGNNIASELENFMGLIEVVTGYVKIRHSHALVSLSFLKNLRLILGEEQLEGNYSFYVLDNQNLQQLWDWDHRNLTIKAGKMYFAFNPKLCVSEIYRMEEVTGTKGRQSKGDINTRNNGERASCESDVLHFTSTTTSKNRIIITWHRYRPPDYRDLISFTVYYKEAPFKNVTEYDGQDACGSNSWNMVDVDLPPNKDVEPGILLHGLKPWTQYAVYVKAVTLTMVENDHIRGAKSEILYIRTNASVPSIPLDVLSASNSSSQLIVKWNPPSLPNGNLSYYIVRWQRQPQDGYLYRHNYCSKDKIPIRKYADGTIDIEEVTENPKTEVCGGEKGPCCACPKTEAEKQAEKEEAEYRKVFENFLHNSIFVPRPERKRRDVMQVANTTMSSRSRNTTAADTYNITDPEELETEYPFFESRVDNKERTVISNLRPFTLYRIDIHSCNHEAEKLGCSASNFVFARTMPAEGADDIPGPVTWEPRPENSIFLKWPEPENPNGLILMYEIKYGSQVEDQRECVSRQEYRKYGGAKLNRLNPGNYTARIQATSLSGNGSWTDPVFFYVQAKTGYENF

% IGF-1 (at 320 nM) bound to IGF-1R at saturating antibody concentrations [1]: 23%
IC50 [1]: 4.9 nM
percent competition [2]: 90 to 100%
percent competition [3]: 90 to 100%
Substance: αIR3 antibody
